Experimental data published in paper PMC5778112.

Columns and labels:
[1] = biological target: VLA-4 (α4β1, CD49d/CD29) (human (endogenous in Jurkat and primary human CD4+ T cells)) (UniProt P13612)
[2] = biological target: VLA-4 (α4β1, CD49d/CD29) (human (endogenous in Jurkat and primary human CD4+ T cells)) (UniProt P13612); remark: listed apart in the source

Sequence of UniProt P13612 (P13612 34-1032, chain 1 of 2): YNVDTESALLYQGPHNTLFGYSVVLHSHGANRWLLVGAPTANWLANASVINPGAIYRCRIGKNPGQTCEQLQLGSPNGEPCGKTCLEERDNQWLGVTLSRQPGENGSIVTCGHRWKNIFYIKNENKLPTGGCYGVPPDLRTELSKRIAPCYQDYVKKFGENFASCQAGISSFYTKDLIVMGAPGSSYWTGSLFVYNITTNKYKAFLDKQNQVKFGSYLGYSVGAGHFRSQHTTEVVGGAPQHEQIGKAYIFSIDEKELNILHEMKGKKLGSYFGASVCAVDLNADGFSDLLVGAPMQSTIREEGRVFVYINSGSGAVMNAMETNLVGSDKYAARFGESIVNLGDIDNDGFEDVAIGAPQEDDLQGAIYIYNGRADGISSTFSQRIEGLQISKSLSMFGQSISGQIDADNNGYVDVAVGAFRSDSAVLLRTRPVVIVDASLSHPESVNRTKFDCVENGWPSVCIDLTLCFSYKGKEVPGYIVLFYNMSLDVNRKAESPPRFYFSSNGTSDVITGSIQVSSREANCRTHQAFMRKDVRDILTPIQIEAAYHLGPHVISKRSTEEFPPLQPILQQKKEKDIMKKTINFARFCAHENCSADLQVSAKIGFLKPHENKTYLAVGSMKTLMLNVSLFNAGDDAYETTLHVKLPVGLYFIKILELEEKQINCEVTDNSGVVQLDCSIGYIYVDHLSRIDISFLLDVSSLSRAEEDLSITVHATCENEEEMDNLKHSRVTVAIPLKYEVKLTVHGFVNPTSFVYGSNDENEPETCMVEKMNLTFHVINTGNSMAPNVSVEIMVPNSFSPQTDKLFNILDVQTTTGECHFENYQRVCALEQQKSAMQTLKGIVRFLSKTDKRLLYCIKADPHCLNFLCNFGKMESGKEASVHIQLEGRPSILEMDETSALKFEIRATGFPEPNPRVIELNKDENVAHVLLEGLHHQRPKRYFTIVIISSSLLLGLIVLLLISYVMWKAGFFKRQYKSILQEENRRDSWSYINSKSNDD
Sequence of UniProt P13612 (P05556 21-798, chain 2 of 2, further chain): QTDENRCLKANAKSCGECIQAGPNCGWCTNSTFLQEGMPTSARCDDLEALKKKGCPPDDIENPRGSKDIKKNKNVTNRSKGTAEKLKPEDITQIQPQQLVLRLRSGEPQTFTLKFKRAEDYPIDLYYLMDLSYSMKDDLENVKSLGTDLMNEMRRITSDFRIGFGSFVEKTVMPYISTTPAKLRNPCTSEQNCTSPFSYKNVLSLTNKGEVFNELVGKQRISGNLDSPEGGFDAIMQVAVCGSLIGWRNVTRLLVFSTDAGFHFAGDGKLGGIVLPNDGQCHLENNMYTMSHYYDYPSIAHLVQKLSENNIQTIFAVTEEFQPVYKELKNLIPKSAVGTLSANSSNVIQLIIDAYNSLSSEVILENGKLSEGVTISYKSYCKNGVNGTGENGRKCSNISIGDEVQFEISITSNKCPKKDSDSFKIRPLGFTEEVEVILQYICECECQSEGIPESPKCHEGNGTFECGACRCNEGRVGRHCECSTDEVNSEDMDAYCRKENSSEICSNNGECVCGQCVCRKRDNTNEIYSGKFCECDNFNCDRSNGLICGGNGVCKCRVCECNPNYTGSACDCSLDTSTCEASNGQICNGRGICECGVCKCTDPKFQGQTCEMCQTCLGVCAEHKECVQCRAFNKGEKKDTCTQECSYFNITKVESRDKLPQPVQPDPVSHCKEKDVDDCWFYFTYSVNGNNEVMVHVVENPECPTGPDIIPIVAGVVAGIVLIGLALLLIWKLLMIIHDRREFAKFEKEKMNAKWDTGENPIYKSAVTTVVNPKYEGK

B1: human VCAM-1-Fc chimera (Fc fusion)
chain: FKIETTPESRYLAQIGDSVSLTCSTTGCESPFFSWRTQIDSPLNGKVTNEGTTSTLTMNPVSFGNEHSYLCTATCESRKLEKGIQVEIYSFPKDPEIHLSGPLEAGKPITVKCSVADVYPFDRLEIDLLKGDHLMKSQEFLEDADRKSLETKSLEVTFTPVIEDIGKVLVCRAKLHIDEMDSVPTVRQAVKELQVYISPKNTVISVNPSTKLQEGGSVTMTCSSEGLPAPEIFWSKKLDNGNLQHLSGNATLTLIAMRMEDSGIYVCEGVNLIGKNRKEVELIVQEKPFTVEISPGPRIAAQIGDSVMLTCSVMGCESPSFSWRTQIDSPLSGKVRSEGTNSTLTLSPVSFENEHSYLCTVTCGHKKLEKGIQVELYSFPRDPEIEMSGGLVNGSSVTVSCKVPSVYPLDRLEIELLKGETILENIEFLEDTDMKSLENKSLEMTFIPTIEDTGKALVCQAKLHIDDMEFEPKQRQSTQTLYVNVAPRDTTVLVSPSSILEEGSSVNMTCLSQGFPAPKILWSRQLPNGELQPLSENATLTLISTKMEDSGVYLCEGINQAGRSRKEVELIIQVTPKDIKLTAFPSESVKEGDTVIISCTCGNVPETWIILKKKAETGDTVLKSIDGAYTIRKAQLKDAGVYECESKNKVGSQLRSLTLDVQGRENNKDYFSPE
modifications: labeled with AF-647 for patterning
actin flow rate in the lamellipodial region of Jurkat T cells (GFP-actin) spreading on coverslips coated with anti-CD3 + VCAM-1 (85–95 nm/s on anti-CD3 alone) [1]: 15 nm/s

B2: His-tagged human VCAM-1 Fc (Fc fusion)
chain: B1 chain
actin flow rate in the lamellipodial region of Jurkat T cells on supported lipid bilayers with mobile anti-CD3 + VCAM-1 [2]: 60 nm/s
